Where “and” joins values, the source holds several entries; their conditions need not be identical. Equal entries are not always repeated.
Legend:
[1] = target: 242-kinase (UniProt P19525); assay: sedimentation velocity AUC; conditions: AU75: 75 mM HEPES pH 7.5, 75 mM NaCl, 0.1 mM EDTA, 0.1 mM TCEP, 20 °C, 50,000 rpm, 260 nm; errors are confidence intervals (95% joint stated for Table 2) …
[2] = target: 229-kinase (UniProt P19525); assay: sedimentation velocity AUC; conditions: AU75: 75 mM HEPES pH 7.5, 75 mM NaCl, 0.1 mM EDTA, 0.1 mM TCEP, 20 °C, 50,000 rpm, 260 nm; errors are confidence intervals (95% joint stated for Table 2) …
229-kinase (UniProt P19525), sequence (P19525 229-551): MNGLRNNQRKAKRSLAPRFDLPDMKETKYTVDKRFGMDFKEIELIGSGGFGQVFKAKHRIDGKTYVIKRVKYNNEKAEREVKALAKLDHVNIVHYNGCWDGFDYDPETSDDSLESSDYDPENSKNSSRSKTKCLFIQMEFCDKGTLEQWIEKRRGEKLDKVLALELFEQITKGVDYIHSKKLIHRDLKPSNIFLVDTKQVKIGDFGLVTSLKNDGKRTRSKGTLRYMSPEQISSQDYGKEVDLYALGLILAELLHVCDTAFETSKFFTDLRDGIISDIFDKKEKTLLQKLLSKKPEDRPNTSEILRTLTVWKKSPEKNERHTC

[3] = target: PKR full length (UniProt P19525 1-551); assay: sedimentation velocity AUC; Kd1, sequential 2:1; AU75: 75 mM HEPES pH 7.5, 75 mM NaCl, 0.1 mM EDTA, 0.1 mM TCEP, 20 °C, 50,000 rpm, 260 nm; errors are confidence intervals (95% joint stated for Table 2); crosslinking in AU75 + 10 mM EDTA, 0.5 µM RNA, 1 µM protein, on ice before UV; conditions: protein: recombinant, chain copies: 2
PKR full length, sequence (P19525 whole entry): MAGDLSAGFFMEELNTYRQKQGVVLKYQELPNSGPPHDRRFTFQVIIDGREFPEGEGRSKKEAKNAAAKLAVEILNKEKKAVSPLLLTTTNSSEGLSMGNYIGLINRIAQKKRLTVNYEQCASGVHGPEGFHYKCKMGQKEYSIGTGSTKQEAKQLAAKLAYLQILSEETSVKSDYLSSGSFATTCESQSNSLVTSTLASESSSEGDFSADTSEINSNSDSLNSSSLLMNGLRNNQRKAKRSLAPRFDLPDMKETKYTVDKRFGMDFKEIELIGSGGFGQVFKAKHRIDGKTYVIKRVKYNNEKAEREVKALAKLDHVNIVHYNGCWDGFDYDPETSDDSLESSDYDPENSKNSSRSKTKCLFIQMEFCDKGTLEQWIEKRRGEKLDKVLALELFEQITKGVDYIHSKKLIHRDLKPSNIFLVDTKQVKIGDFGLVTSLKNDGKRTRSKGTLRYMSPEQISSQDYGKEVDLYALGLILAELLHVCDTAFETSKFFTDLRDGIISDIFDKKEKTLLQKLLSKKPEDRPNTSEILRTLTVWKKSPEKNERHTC

[4] = target: T1, PKR dsRBD (UniProt P19525 1-184); assay: sedimentation velocity AUC; Kd1; footnote b not in material; AU75: 75 mM HEPES pH 7.5, 75 mM NaCl, 0.1 mM EDTA, 0.1 mM TCEP, 20 °C, 50,000 rpm, 260 nm; errors are confidence intervals (95% joint stated for Table 2); crosslinking in AU75 + 10 mM EDTA, 0.5 µM RNA, 1 µM protein, on ice before UV; conditions: protein: recombinant; chain copies: 2; weak predicted secondary structure
T1 sequence (P19525 1-184): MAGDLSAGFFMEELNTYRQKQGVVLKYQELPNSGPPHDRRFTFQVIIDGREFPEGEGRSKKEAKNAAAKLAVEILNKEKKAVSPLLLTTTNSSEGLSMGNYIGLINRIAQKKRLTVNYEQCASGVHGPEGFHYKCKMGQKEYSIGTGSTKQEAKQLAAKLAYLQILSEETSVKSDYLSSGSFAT

[5] = target: 229-kinase (UniProt P19525 229-551); assay: sedimentation velocity AUC; Kd1, sequential 2:1; AU75: 75 mM HEPES pH 7.5, 75 mM NaCl, 0.1 mM EDTA, 0.1 mM TCEP, 20 °C, 50,000 rpm, 260 nm; errors are confidence intervals (95% joint stated for Table 2); crosslinking in AU75 + 10 mM EDTA, 0.5 µM RNA, 1 µM protein, on ice before UV; conditions: protein: recombinant; tags: TEV-cleaved, extra N-terminal Gly; chain copies: 2; single strand
229-kinase (UniProt P19525 229-551), sequence (P19525 229-551): as the sequence (P19525 229-551) above

[6] = target: T1, PKR dsRBD; assay: as above; conditions: protein: recombinant; chain copies: 2; single strand
[7] = target: 185-kinase (UniProt P19525 185-551); assay: as above; conditions: protein: recombinant; tags: TEV-cleaved, extra N-terminal Gly; chain copies: 2; single strand
185-kinase, sequence (P19525 185-551): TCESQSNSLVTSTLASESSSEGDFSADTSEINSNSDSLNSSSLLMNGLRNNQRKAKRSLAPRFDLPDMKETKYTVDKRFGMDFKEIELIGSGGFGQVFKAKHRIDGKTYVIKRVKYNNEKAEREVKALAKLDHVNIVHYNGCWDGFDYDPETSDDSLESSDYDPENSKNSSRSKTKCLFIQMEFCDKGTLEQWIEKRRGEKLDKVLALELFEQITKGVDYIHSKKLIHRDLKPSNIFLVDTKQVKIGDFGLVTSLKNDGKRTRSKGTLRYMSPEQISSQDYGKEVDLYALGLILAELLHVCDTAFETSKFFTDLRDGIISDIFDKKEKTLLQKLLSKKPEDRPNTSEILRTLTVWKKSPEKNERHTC

[8] = target: 242-kinase (UniProt P19525 242-551); assay: sedimentation velocity AUC; 1:1 model; second protein not detected; AU75: 75 mM HEPES pH 7.5, 75 mM NaCl, 0.1 mM EDTA, 0.1 mM TCEP, 20 °C, 50,000 rpm, 260 nm; errors are confidence intervals (95% joint stated for Table 2); crosslinking in AU75 + 10 mM EDTA, 0.5 µM RNA, 1 µM protein, on ice before UV; conditions: protein: recombinant; tags: TEV-cleaved; single strand
242-kinase (UniProt P19525 242-551), sequence (P19525 242-551): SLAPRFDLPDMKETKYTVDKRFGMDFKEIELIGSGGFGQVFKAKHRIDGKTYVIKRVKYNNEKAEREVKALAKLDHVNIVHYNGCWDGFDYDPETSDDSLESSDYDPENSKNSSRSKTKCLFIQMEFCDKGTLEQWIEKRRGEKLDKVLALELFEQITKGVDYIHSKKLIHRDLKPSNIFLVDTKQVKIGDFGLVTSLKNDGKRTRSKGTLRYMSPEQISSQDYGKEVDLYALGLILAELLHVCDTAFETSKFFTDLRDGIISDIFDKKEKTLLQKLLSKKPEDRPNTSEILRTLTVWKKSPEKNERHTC

[9] = weak predicted secondary structure

242-kinase (UniProt P19525), sequence (P19525 242-551): as above

Molecule: ds30
- Kd [1]: 19.9 µM
- Kd [2]: 3.8 µM and 3.27 µM

B1: Het30 (ssRNA)
RNA: GGAGAACUUAAUGCCGGAGACCAAAGACUU
modifications: 5'-OH
- Kd [3, 9]: 1.07 µM
- Kd [4]: 8.21 µM

B2: dT30 (ssDNA)
DNA: TTTTTTTTTTTTTTTTTTTTTTTTTTTTTT
- Kd [5]: 2.59 µM

B3: U30 (ssRNA)
RNA: UUUUUUUUUUUUUUUUUUUUUUUUUUUUUU
- Kd [6]: 8.42 µM
- Kd [5]: 1.91 µM
- Kd [7]: 31.9 µM
- Kd ([3]; single strand): 3.51 µM
- Kd [8]: 90 µM

B4: ppp-Het30 (ssRNA)
RNA: GGAGAACUUAAUGCCGGAGACCAAAGACUU
modifications: 5'-triphosphate
- Kd [3, 9]: 0.825 µM
- Kd [4]: 5.36 µM

— article PMC5469796, “Interaction of PKR with single-stranded RNA”
